Data: the supplement of paper PMC7125110
± gives the standard error. For some assays here: This sample holds only a part of the variants without activity.

B1: glmS ribozyme (parent)
chain: AUAAAAGCGCCAGAACUACAGAAAUGUAGUUGACGAGGAGGAGGUUUAUCGAAUUUUCGGCGGAUGCCUCCAAA

What was measured:
Settings in all cases: with glucosamine-6-phosphate
glucosamine-6-phosphate [1] = variants of: B1; assay: kcat; higher = faster cleavage; RNA array
Summary of the method: (§1)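 Glucosamine-6-phosphate, from 40 μM to 10 mM in HEPES/KCl/Mg(OAc)2 buffer, was flowed over sequenced MiSeq chips carrying barcoded ribozyme variants transcribed in situ by E. coli RNA polymerase. A hybridised Cy3 probe tracked the variants at 37 °C as tiles were imaged over ~14 h. kobs, kcat and KM were obtained by fitting normalised per-tile medians to exponential decays and then applying weighted Michaelis–Menten fits across concentrations.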

glucosamine-6-phosphate [2] = variants of: B1; assay: self-cleavage kobs at 640 uM GlcN6P; higher = faster cleavage; RNA array
Summary of the method: as §1

glucosamine-6-phosphate [3] = variants of: B1; assay: self-cleavage kobs at 2500 uM GlcN6P; higher = faster cleavage; RNA array
Summary of the method: as §1

glucosamine-6-phosphate [4] = variants of: B1; assay: self-cleavage kobs at 10000 uM GlcN6P; higher = faster cleavage; RNA array
Summary of the method: as §1

glucosamine-6-phosphate [5] = variants of: B1; assay: KM; higher = weaker cofactor use; RNA array
Summary of the method: as §1

glucosamine-6-phosphate [6] = variants of: B1; assay: self-cleavage kobs at 40 uM GlcN6P; higher = faster cleavage; RNA array
Summary of the method: as §1

glucosamine-6-phosphate [7] = variants of: B1; assay: self-cleavage kobs at 160 uM GlcN6P; higher = faster cleavage; RNA array
Summary of the method: as §1

Row | Variant | kcat (glucosamine-6-phosphate [1]) [s⁻¹] | self-cleavage kobs at 640 uM GlcN6P (glucosamine-6-phosphate [2]) [s⁻¹] | self-cleavage kobs at 2500 uM GlcN6P (glucosamine-6-phosphate [3]) [s⁻¹] | self-cleavage kobs at 10000 uM GlcN6P (glucosamine-6-phosphate [4]) [s⁻¹] | KM (glucosamine-6-phosphate [5]) [µM] | self-cleavage kobs at 40 uM GlcN6P (glucosamine-6-phosphate [6]) [s⁻¹] | self-cleavage kobs at 160 uM GlcN6P (glucosamine-6-phosphate [7]) [s⁻¹]
1 | A39C U47G | 0.00107 ± 0.00043 | 0.000286 ± 5.5e-05 | 0.000425 ± 0.0001 | 0.00109 ± 0.0002 | – | – | –
2 | G40U U46G | 0.00101 ± 0.00013 | 0.000242 ± 3.9e-05 | 0.000669 ± 8.8e-05 | 0.000785 ± 0.00012 | 1860 ± 390 | 2.93e-05 ± 1.4e-05 | 7.71e-05 ± 1.5e-05
3 | G41C U46G | 0.000114 ± 3.4e-06 | – | 6.37e-05 ± 1.1e-05 | 9.41e-05 ± 1e-05 | 2060 ± 210 | – | –
4 | G41C U46A | 0.00012 ± 1.2e-05 | – | 5.8e-05 ± 1.3e-05 | 9.03e-05 ± 1.3e-05 | 3110 ± 830 | – | –
5 | A39U A64G | 0.031 ± 0.012 | 0.00498 ± 0.0006 | 0.0101 ± 0.0015 | 0.0327 ± 0.0047 | – | 0.000447 ± 5.6e-05 | 0.00134 ± 0.00017
6 | A39G U57C | 0.000566 ± 0.0002 | 5.87e-05 ± 1.5e-05 | 0.00013 ± 2.3e-05 | 0.000351 ± 6.4e-05 | – | < 1e-05 | –
7 | G41C C67U C70A | 5.68e-05 ± 1.2e-05 | – | – | 2.88e-05 ± 1.3e-05 | 9730 ± 3700 | – | –
8 | G41C U49G | < 1e-05 | – | – | – | – | – | < 1e-05
9 | A39C C67U | 0.000495 ± 9.5e-05 | 0.000154 ± 1.3e-05 | 0.000377 ± 3.5e-05 | 0.000443 ± 5.1e-05 | 1150 ± 400 | 3.13e-05 ± 7.5e-06 | 7.1e-05 ± 8.8e-06
10 | G40C A64G | 0.00107 ± 0.00027 | – | 0.000837 ± 0.00017 | 0.000811 ± 9.3e-05 | – | – | 4.29e-05 ± 1.9e-05
11 | G41A G66U C70A | 0.000127 ± 3e-05 | 9.26e-05 ± 3.3e-05 | 6.32e-05 ± 2.8e-05 | 0.000131 ± 2e-05 | – | – | –
12 | A39G A48G | 0.000124 ± 2.2e-05 | – | 0.00013 ± 2.7e-05 | 0.000106 ± 1.4e-05 | – | – | –
13 | G41A A52G | 8.32e-05 ± 1.6e-05 | – | 7.3e-05 ± 1.3e-05 | 6.83e-05 ± 1.3e-05 | – | – | –
14 | G41C G66A | 0.00127 ± 0.00038 | 0.00013 ± 3.9e-05 | 0.000621 ± 0.00011 | 0.000851 ± 0.00016 | 4000 ± 1900 | – | 6.76e-05 ± 2.3e-05
15 | A39C C71G | 1.47e-05 ± 1.2e-06 | – | – | – | – | – | < 1e-05
16 | A39G G40U U55C C71A | 0.00728 ± 0.0021 | 0.00178 ± 0.00043 | 0.00448 ± 0.00083 | 0.00562 ± 0.001 | 2200 ± 930 | 0.000207 ± 4.1e-05 | 0.000368 ± 8.6e-05
17 | G41A U46G | 0.00092 ± 0.00015 | 0.000206 ± 4.4e-05 | 0.000537 ± 0.00011 | 0.000747 ± 0.00018 | 2030 ± 530 | – | 6.59e-05 ± 1.8e-05
